Ratio to parent data for 34 variants are collected here from article PMC11480844 (2024).

Sequences and labels used below:
B1: H2-Kb / Ed23 (parent complex)
chain 1: QQKVQQSPESLTVSEGAMASLNCTFSDRSSDNFRWYRQHSGKGLEVLVSIFSDGEKEEGSFTAHLNRASLHVFLHIREPQPSDSALYLCAVRGFWTNKVVFGTGTRLQVLP
chain 2: AQTIHQWPVAEIKAVGSPLSLGCTIKGKSSPNLYWYWQATGGTLQQLFYSITVGQVESVVQLNLSASRPKDDQFILSTEKLLLSHSGFYLCAWSPRQSSYEQYFGPGTRLTVL
chain 3: not shown
chain 4: IQKTPQIQVYSRHPPENGKPNILNCYVTQFHPPHIEIQMLKNGKKIPKVEMSDMSFSKDWSFYILAHTEFTPTETDTYACRVKHDSMAEPKTVYWDRDM
chain 5: SIINFEKL

In the assay the parent is B1. Put plainly: % of reporter cells activated (NFAT-GFP), raw. Also: test concentration or dose not given here.
Consider chain 5 I3H, for which the ratio to parent is 1.55.

Turning to chain 5 I3M, the ratio to parent turned out to be 1.24.

For the variant chain 5 I3P, the ratio to parent worked out at 1.29.

In the case of chain 5 I3F, the ratio to parent is 0.433.

Take chain 5 I3E: the ratio to parent came to 1.21.

Regarding chain 5 I3T, the ratio to parent turned out to be 1.22.

Turning to chain 5 I3N, the ratio to parent came to 1.38.

With chain 5 I3C, the ratio to parent amounted to 1.2.

For the variant chain 5 N4L, the ratio to parent is 0.631.

Regarding chain 5 N4P, the ratio to parent amounted to 0.71.

Consider chain 5 N4C, for which the ratio to parent worked out at 0.108.

On to chain 5 N4G, for which the ratio to parent was determined as 0.451.

As for chain 5 N4Q, the ratio to parent was 0.0702.

Turning to chain 5 S1Q, the ratio to parent is 1.61.

For chain 5 S1M, the ratio to parent came to 0.348.

Take chain 5 S1E: the ratio to parent came out at 1.27.

As for chain 5 S1W, the ratio to parent was 0.515.

On to chain 5 S1L, for which the ratio to parent came to 0.454.

chain 5 F5L: the ratio to parent was found to be 1.17.

As to chain 5 F5Q, the ratio to parent was determined as 1.41.

For the variant chain 5 E6C, the ratio to parent stood at 0.0131.

In the case of chain 5 K7I, the ratio to parent was 0.142.

Turning to chain 5 K7Y, the ratio to parent was determined as 0.654.

Turning to chain 5 K7D, the ratio to parent was 0.155.

Consider chain 5 K7E, for which the ratio to parent came out at 0.0934.

In the case of chain 5 K7Q, the ratio to parent was 0.132.

In the case of chain 5 L8A, the ratio to parent turned out to be 0.692.

chain 5 L8S: the ratio to parent turned out to be 0.828.

Turning to chain 5 L8E, the ratio to parent stood at 0.833.

Regarding chain 5 L8M, the ratio to parent was 0.785.

For the variant chain 5 L8D, the ratio to parent worked out at 0.909.

Regarding chain 5 L8H, the ratio to parent is 1.25.

As for chain 5 L8T, the ratio to parent was found to be 1.02.

With chain 5 I2T, the ratio to parent stood at 1.47.
